Earlier results, collected in PMC7557795.

What was measured:
[1] = target: IL-6R/gp130 (Homo sapiens) (UniProt P08887)
IL-6R (Homo sapiens) = IL-6R (Homo sapiens) (UniProt P08887)
Chain of IL-6R (Homo sapiens) (P08887 20-355): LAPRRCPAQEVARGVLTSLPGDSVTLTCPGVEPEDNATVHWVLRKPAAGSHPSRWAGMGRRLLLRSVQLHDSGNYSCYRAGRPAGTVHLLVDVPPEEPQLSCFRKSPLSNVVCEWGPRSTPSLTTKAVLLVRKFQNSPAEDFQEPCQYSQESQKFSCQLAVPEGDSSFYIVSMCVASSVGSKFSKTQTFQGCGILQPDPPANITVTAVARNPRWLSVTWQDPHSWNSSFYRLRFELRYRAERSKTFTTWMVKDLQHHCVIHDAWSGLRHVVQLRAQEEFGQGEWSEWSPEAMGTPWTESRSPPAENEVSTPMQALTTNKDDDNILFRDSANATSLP

Chain of IL-6 (P05231 30-212): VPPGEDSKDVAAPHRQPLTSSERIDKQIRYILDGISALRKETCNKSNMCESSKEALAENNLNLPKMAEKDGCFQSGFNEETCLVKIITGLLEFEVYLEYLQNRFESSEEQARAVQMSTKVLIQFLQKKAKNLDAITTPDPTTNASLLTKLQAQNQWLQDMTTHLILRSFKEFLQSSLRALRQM
Chain of IL-6R/gp130 (Homo sapiens) (P08887 20-365, chain 1 of 2): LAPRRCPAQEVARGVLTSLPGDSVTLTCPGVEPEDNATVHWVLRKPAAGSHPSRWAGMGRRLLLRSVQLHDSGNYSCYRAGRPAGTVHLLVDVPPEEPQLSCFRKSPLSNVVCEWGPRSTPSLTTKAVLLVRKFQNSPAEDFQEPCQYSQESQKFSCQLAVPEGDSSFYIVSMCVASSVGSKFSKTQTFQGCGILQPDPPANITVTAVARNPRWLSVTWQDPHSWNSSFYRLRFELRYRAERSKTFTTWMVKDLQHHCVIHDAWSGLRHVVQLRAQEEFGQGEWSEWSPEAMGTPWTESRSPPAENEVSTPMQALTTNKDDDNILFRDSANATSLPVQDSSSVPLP
Chain of IL-6R/gp130 (Homo sapiens) (partner, as listed by the source, chain 2 of 2): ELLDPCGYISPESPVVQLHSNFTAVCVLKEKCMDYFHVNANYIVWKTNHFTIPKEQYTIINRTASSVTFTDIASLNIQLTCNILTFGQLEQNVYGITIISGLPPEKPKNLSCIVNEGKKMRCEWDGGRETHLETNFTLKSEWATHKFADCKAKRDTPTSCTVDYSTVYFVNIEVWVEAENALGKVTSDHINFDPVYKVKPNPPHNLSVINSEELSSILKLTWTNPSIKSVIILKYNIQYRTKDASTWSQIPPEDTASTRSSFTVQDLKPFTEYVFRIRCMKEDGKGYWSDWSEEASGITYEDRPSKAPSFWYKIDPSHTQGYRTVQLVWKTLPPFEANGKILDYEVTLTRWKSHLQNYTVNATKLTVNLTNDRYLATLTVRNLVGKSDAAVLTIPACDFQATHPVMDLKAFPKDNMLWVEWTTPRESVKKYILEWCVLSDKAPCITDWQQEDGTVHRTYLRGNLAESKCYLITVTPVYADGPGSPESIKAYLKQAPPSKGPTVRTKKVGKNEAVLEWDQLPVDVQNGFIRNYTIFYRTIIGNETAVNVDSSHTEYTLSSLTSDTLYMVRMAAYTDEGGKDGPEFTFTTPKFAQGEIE

Kd [1]: 0.08 nM | Kd (IL-6R (Homo sapiens)): 0.9 nM
Substance: IL-6 (from UniProt P05231)
